Molecular target: T1, His-tagged human FANCD2 purified from E. coli (human, UniProt Q9BXW9 1-1451)
T1 construct: human FANCD2; non-ubiquitinylated single band on a gel; also called FANCD2-His; hFANCD2; source: E. coli BL21(DE3) CodonPlus, purified (Ni-NTA, Q Sepharose, Superdex 200)
Test: pull-down; FLAG-DNA2 purified on M2 FLAG beads, incubated with purified FANCD2 (1 ug/ml) at 4 C for 1 h; washed with PBS 5 times; western blot; empty M2 beads as control
Conditions: both partners purified

T1 sequence (Q9BXW9 whole entry): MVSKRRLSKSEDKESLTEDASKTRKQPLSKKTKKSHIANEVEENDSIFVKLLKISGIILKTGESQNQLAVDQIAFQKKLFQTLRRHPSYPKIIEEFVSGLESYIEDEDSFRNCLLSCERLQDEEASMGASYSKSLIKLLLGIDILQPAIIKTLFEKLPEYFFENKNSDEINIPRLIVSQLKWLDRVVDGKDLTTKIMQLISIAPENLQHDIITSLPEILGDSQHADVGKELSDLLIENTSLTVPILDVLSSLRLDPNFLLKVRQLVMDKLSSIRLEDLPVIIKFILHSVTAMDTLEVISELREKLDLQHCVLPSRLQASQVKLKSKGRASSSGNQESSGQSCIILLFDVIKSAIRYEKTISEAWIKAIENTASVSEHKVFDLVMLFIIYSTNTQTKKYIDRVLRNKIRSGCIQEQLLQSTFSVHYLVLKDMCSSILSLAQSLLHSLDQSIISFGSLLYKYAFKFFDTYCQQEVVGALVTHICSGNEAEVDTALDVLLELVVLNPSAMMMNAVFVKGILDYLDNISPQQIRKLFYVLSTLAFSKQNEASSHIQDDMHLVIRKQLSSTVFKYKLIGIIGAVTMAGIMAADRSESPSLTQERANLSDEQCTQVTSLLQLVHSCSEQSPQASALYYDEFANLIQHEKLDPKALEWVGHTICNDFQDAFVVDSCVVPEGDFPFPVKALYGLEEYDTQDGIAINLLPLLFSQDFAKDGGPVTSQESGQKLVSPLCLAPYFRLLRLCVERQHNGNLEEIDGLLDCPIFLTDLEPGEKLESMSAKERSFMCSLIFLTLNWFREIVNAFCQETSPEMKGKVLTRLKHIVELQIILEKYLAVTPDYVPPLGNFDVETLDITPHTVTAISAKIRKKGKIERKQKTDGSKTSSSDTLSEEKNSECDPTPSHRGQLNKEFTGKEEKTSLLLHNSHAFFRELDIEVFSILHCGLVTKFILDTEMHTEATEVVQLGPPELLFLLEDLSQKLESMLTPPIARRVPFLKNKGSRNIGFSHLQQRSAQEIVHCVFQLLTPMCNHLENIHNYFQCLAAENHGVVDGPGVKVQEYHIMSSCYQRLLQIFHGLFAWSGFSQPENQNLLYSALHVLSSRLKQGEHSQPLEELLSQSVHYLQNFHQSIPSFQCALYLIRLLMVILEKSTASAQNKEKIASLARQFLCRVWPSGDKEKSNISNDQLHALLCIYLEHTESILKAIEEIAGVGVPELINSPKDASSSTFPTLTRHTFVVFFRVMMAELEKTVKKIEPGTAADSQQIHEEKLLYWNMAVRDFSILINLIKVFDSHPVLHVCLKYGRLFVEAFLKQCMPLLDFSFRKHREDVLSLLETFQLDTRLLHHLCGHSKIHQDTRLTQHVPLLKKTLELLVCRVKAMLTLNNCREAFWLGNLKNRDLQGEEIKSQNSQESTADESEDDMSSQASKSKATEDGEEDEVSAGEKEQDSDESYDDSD

binding result: binds
B1: FLAG-tagged human DNA2 from 293T cells (enzyme, UniProt P51530 1-1060, looked up)
chain: MEQLNELELLMEKSFWEEAELPAELFQKKVVASFPRTVLSTGMDNRYLVLAVNTVQNKEGNCEKRLVITASQSLENKELCILRNDWCSVPVEPGDIIHLEGDCTSDTWIIDKDFGYLILYPDMLISGTSIASSIRCMRRAVLSETFRSSDPATRQMLIGTVLHEVFQKAINNSFAPEKLQELAFQTIQEIRHLKEMYRLNLSQDEIKQEVEDYLPSFCKWAGDFMHKNTSTDFPQMQLSLPSDNSKDNSTCNIEVVKPMDIEESIWSPRFGLKGKIDVTVGVKIHRGYKTKYKIMPLELKTGKESNSIEHRSQVVLYTLLSQERRADPEAGLLLYLKTGQMYPVPANHLDKRELLKLRNQMAFSLFHRISKSATRQKTQLASLPQIIEEEKTCKYCSQIGNCALYSRAVEQQMDCSSVPIVMLPKIEEETQHLKQTHLEYFSLWCLMLTLESQSKDNKKNHQNIWLMPASEMEKSGSCIGNLIRMEHVKIVCDGQYLHNFQCKHGAIPVTNLMAGDRVIVSGEERSLFALSRGYVKEINMTTVTCLLDRNLSVLPESTLFRLDQEEKNCDIDTPLGNLSKLMENTFVSKKLRDLIIDFREPQFISYLSSVLPHDAKDTVACILKGLNKPQRQAMKKVLLSKDYTLIVGMPGTGKTTTICTLVRILYACGFSVLLTSYTHSAVDNILLKLAKFKIGFLRLGQIQKVHPAIQQFTEQEICRSKSIKSLALLEELYNSQLIVATTCMGINHPIFSRKIFDFCIVDEASQISQPICLGPLFFSRRFVLVGDHQQLPPLVLNREARALGMSESLFKRLEQNKSAVVQLTVQYRMNSKIMSLSNKLTYEGKLECGSDKVANAVINLRHFKDVKLELEFYADYSDNPWLMGVFEPNNPVCFLNTDKVPAPEQVEKGGVSNVTEAKLIVFLTSIFVKAGCSPSDIGIIAPYRQQLKIINDLLARSIGMVEVNTVDKYQGRDKSIVLVSFVRSNKDGTVGELLKDWRRLNVAITRAKHKLILLGCVPSLNCYPPLEKLLNHLNSEKLIIDLPSREHESLCHILGDFQRE
notes: human DNA2 helicase/nuclease; also called FLAG-DNA2; hDNA2; source: 293T, over-expressed, purified (M2 FLAG beads, 3x FLAG peptide elution); HEK-293T, over-expressed, in lysate
